{"source": "paper PMC7463749", "origin": "cited, not measured here", "key": {"BB2R (Homo sapiens)": {"molecular_target": "BB2R (Homo sapiens) (UniProt P30550)", "sequence (P30550 whole entry)": "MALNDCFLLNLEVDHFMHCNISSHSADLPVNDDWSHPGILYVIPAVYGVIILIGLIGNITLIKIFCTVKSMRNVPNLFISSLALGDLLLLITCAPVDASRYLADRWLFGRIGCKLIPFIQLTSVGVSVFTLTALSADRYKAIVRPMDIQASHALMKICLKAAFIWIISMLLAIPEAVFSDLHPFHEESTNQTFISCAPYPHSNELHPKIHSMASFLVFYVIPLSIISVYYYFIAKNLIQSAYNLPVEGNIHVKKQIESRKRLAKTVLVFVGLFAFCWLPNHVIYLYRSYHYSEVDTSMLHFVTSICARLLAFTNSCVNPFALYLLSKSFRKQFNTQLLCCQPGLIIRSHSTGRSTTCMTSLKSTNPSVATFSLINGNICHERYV"}, "BB1R (Homo sapiens)": {"molecular_target": "BB1R (Homo sapiens) (UniProt P28336)", "sequence (P28336 whole entry)": "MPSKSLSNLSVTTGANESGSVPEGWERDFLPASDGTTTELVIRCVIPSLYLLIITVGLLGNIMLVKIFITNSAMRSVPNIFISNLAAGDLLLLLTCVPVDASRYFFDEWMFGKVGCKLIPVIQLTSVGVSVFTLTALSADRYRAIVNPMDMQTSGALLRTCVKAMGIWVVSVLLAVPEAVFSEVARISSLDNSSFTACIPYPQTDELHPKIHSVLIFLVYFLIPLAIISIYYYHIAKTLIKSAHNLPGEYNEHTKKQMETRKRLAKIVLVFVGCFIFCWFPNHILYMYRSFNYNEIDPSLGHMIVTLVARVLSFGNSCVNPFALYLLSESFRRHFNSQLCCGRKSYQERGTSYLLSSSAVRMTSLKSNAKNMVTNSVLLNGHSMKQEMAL"}}, "data": [{"substance": "gastrin-releasing peptide (from UniProt P07492)", "values": [{"measurement": "Ki", "setting": "BB2R (Homo sapiens)", "result": 0.19, "unit": "nM"}]}, {"substance": "neuromedin B (from UniProt P08949)", "values": [{"measurement": "Ki", "setting": "BB1R (Homo sapiens)", "result": 0.052, "unit": "nM"}]}]}
